Data: the supplement of paper PMC9170038

Test system: MS2 coat protein
Experiment: apparent KD of MS2 coat protein; designed switch direction (-1 OFF switch, 1 ON switch): -1; higher = weaker reporter binding
How it was run: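 Apparent KD, taken as the median over clusters for each design, was obtained by curve-fitting normalised cluster fluorescence. Designed RNA switches had been transcribed on Illumina chips by stalled E. coli RNA polymerase and titrated with SNAP-549-labelled MS2 coat protein, doubling from 0.7 or 1.5 nM to 3 µM.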

[1] = input ligand: microRNA oligo, concentration not stated
[2] = Eterna round: R95, input ligand: FMN 200 uM
[3] = Eterna round: R95, input ligand: microRNA oligo, concentration not stated
[4] = Eterna round: R95, input ligand: none

Sequence: UCGCUCCGUGUAGGAUAUCGCCGUUCUAUUCGGCGAGAAGGACAUGAGGAUCACCCAUGUAUGUUAUUAUCACGUGUGGCGCGC [Design 55] (Eterna round: R96, puzzle: Exclusion NG 1)
- apparent KD of MS2 coat protein (input ligand: FMN 200 uM): 36 nM
- apparent KD of MS2 coat protein [1]: 14 nM
- apparent KD of MS2 coat protein (input ligand: none): 20.6 nM

Sequence: ACAGUUCUGCAAGGAUAUCGUCCUAGUUUGUUUCGAGAAGGUGCUUUUGUUUUUUCUUUGUGUUGACAUGAGGAUCACCCAUGU [JR_ExcNG1_Sub052] (Eterna round: R96, puzzle: Exclusion NG 1)
- apparent KD of MS2 coat protein (input ligand: FMN 200 uM): 20.3 nM
- apparent KD of MS2 coat protein [1]: 20.6 nM
- apparent KD of MS2 coat protein (input ligand: none): 28.7 nM

Sequence: AAAUACCGGUGAGGAUAUUUUUAAUAGAACUUUAUGAUAUACAUGAGGAUCACCCAUGUUACUUUAAAGAAGGCAUCGGAUAAA [Mat - Exclusion NG 2 - Mod of JL - D88] (Eterna round: R96, puzzle: Exclusion NG 2)
- apparent KD of MS2 coat protein [1]: 12.1 nM

Sequence: CGGUGUAACGUAGGAUAUCAUCGCAACUGACGUUGAGAAGGACGACAUGAGGAUCACCCAUGUGAUUUCUCAAUAUUAUACAUC [Prohibition 85 - Jieux - Exclusion NG 1] (Eterna round: R96, puzzle: Exclusion NG 1)
- apparent KD of MS2 coat protein (input ligand: FMN 200 uM): 69.6 nM
- apparent KD of MS2 coat protein [1]: 20.4 nM
- apparent KD of MS2 coat protein (input ligand: none): 19.6 nM

Sequence: UGUACUAACACGGAAGUGUUAGUACUAUAAGCUUGUGUUACAUGAGGAUCACCCAUGUCCUCAUAAGCUCGUCUUAA [Mat - Sensor v3 - Turn-off var 2 - D73] (puzzle: Sensor v3, turn-off variant 2)
- apparent KD of MS2 coat protein [2]: 43.3 nM
- apparent KD of MS2 coat protein [3]: 198 nM
- apparent KD of MS2 coat protein [4]: 41 nM

Sequence: GCAAGUUUUUUGUUUUUUAACAUGAGGAUCACCCAUGUAUUUUUAUAGUAUGUGUGAAUAAGAUCUCGUGGUCUUAG [JR_SV3TOV1_Sub100] (puzzle: Sensor v3, turn-off variant 1)
- apparent KD of MS2 coat protein [2]: 73.3 nM
- apparent KD of MS2 coat protein [3]: 203 nM
- apparent KD of MS2 coat protein [4]: 77.2 nM

Sequence: UCAUGGAAGCAGGAUAUGCUUGUUUAAUUGUUUGCAGAAGGGCUAACAUGAGGAUCACCCAUGUAAGAGGUCUA [JR_E6_Sub063] (Eterna round: R96, puzzle: Exclusion 6)
- apparent KD of MS2 coat protein (input ligand: FMN 200 uM): 59.6 nM
- apparent KD of MS2 coat protein [1]: 53.3 nM
- apparent KD of MS2 coat protein (input ligand: none): 72.5 nM

Sequence: UUAAUUAAUUGCGCAAGAUCACAUGAGGAUCACCCAUGUAUAUAGGAUAUCAGCUCGAUUAGAGCUGAGAAGGAUAUACAGCGC [ExNG3/3-A1] (Eterna round: R96, puzzle: Exclusion NG 3)
- apparent KD of MS2 coat protein (input ligand: FMN 200 uM): 711 nM
- apparent KD of MS2 coat protein [1]: 192 nM
- apparent KD of MS2 coat protein (input ligand: none): 313 nM

Sequence: AGUACUAACACGAAAGUGUUAGUACAAUAAGCUUGUGAAACAUGAGGAUCACCCAUGUCCUCAUAAGCUCGUCUUGU [salish99_TOv2_r3_009] (puzzle: Sensor v3, turn-off variant 2)
- apparent KD of MS2 coat protein [2]: 15.2 nM
- apparent KD of MS2 coat protein [3]: 353 nM
- apparent KD of MS2 coat protein [4]: 13.7 nM

Sequence: AAUAAUCGAGGAUAUACUAAAAUAUGAAUAAAAUAAAUAAAACAUGAGGAUCACCCAUGUAGAAGGCGAAAUAA [JMF's Not so obvious solution 1] (puzzle: Exclusion 2)
- apparent KD of MS2 coat protein [2]: 20.8 nM
- apparent KD of MS2 coat protein [3]: 24.1 nM
- apparent KD of MS2 coat protein [4]: 29.5 nM

Sequence: GAAUAGGCAGGAUAUACAUGAGGAUCACCCAUGUGCCUGCGAAAGGUACGUUCGAAAGGUAGAAGGGCCUAAAC [ChP 13.04.2015 #6] (puzzle: Exclusion 3)
- apparent KD of MS2 coat protein [3]: 12.2 nM

Sequence: GUAAACGAAGAGGAUAUUUGAUAUCAUAGCUUCAAAGAAGGCUUCACAUGAGGAUCACCCAUGUGAUCUUCAAG [Mat - Exclusion 6 - JL Mod - D21] (Eterna round: R97, puzzle: Exclusion 6)
- apparent KD of MS2 coat protein (input ligand: FMN 200 uM): 199 nM
- apparent KD of MS2 coat protein (input ligand: none): 34.8 nM

Sequence: GAUUAGUGAGGAUAUGGUAAAGAUAAGAUGAUGAAAGAACUCCAGAAGGCACAUGAGGAUCACCCAUGUAGUAG [Mat - Exclusion 4 - Mod of JL - D21] (puzzle: Exclusion 4)
- apparent KD of MS2 coat protein [2]: 17.1 nM
- apparent KD of MS2 coat protein [3]: 20.4 nM
- apparent KD of MS2 coat protein [4]: 20.1 nM

Sequence: UCUGGUCGAGGAUAUACGUGAGGUGCUUCGGCACCAGGUCUACAUGAGGAUCACCCAUGUAGAAGGCGACCAGA [EX2 #61] (Eterna round: R97, puzzle: Exclusion 2)
- apparent KD of MS2 coat protein (input ligand: FMN 200 uM): 62.1 nM
- apparent KD of MS2 coat protein (input ligand: none): 16.7 nM

Sequence: GGACACUGAGGAUAUACAAUUCAGGUCCUCCUGUAGAGUAUACAUGAGGAUCACCCAUGUAGAAGGCAGACCAA [Aronberiat] (Eterna round: R97, puzzle: Exclusion 2)
- apparent KD of MS2 coat protein (input ligand: FMN 200 uM): 344 nM
- apparent KD of MS2 coat protein (input ligand: none): 44.9 nM

Sequence: AUAAUGUAAGGAUAUCAGUCGUAAUUUAAUUUAAUAUCGACUGAGAAGGUACAUGAGGAUCACCCAUGUGGUCA [E4/9-B2] (Eterna round: R97, puzzle: Exclusion 4)
- apparent KD of MS2 coat protein (input ligand: FMN 200 uM): 148 nM
- apparent KD of MS2 coat protein (input ligand: none): 574 nM

Sequence: CUUUUGUGAGGAUAUCAGUAGUAAAAAAAUAAUAUUACUACUGAGAAGGCACAUGAGGAUCACCCAUGUUCCUC [salish99_ex4_r3_024] (puzzle: Exclusion 4)
- apparent KD of MS2 coat protein [3]: 38.4 nM

Sequence: UCCGGACAUGAGGAUCACCCAUGUCAGGAUAUACCCGAGGCAGCAAACACGCUAGCCAGUAGAAGGGACAUGGU [Geenma] (Eterna round: R97, puzzle: Exclusion 1)
- apparent KD of MS2 coat protein (input ligand: FMN 200 uM): 18.3 nM
- apparent KD of MS2 coat protein (input ligand: none): 20.7 nM

Sequence: CGUACUCAAGUGAGGAUAUUGUCUCGGAUACGAAACAAGAAGGCACAUGAGGAUCACCCAUGUAGAGAGUACGA [Malc #30 mod 1] (puzzle: Brourd's mod of Exclusion 4)
- apparent KD of MS2 coat protein [3]: 14.5 nM

Sequence: CAAAGUUGGUAAGGAUAUCCUACAUUAUUCUGACCCGUGCAAGCUACAUGAGGAUCACCCAUGUGGGAGAAGGUGCGUUAAAGU [Design 3] (Eterna round: R96, puzzle: Exclusion NG 2)
- apparent KD of MS2 coat protein (input ligand: FMN 200 uM): 23.4 nM
- apparent KD of MS2 coat protein [1]: 17.4 nM
- apparent KD of MS2 coat protein (input ligand: none): 21.7 nM

Sequence: CGAGCUCAUGUGAGGAUAUACCUAUGGAUACAUAGGUAGAAGGCACAUGAGGAUCACCCAUGUCCUAGAGCUCG [jl-bmx4-4.58] (Eterna round: R97, puzzle: Brourd's mod of Exclusion 4)
- apparent KD of MS2 coat protein (input ligand: FMN 200 uM): 821 nM
- apparent KD of MS2 coat protein (input ligand: none): 138 nM

Sequence: AAACACUGAGGAUAUGCAUAACAACAAAGCCUCACGUGCCAACAUGAGGAUCACCCAUGUAGAAGGCAGUCCAA [Mod R3 Insanara 16 - Jieux - Exclusion 2] (Eterna round: R97, puzzle: Exclusion 2)
- apparent KD of MS2 coat protein (input ligand: FMN 200 uM): 25 nM
- apparent KD of MS2 coat protein (input ligand: none): 30 nM

Sequence: ACGUACAAGCCGAUCCUAAACAUGAGGAUCACCCAUGUGCUCGUUUUGUAAAGUACUAUCACGAAAGUGAUAGUACA (Eterna round: R97, puzzle: Sensor, turn-off variant 1)
- apparent KD of MS2 coat protein (input ligand: FMN 200 uM): 114 nM
- apparent KD of MS2 coat protein (input ligand: none): 122 nM

Sequence: GAAGAGUGAGGAUAUACAUGAGGAUCACCCAUGUUAACCUUCUACAGCAUGGACUCGAGUAGAAGGCGCCAAGA [Eternabot (Original) Solution 21] (Eterna round: R97, puzzle: Exclusion 3)
- apparent KD of MS2 coat protein (input ligand: FMN 200 uM): 20.3 nM
- apparent KD of MS2 coat protein (input ligand: none): 25.8 nM

Sequence: UCCUUACUGGUCAGGAUAUACAUUCGCGGGUGGGUGUAGAAGGGACAUGAGGAUCACCCAUGUACGUUACAUCC [alecazam54g] (Eterna round: R97, puzzle: Brourd's mod of Exclusion 4)
- apparent KD of MS2 coat protein (input ligand: FMN 200 uM): 18 nM
- apparent KD of MS2 coat protein (input ligand: none): 16 nM

Sequence: GAAAAGGUAGGAUAUACGAAAAAAAAGGGUAGAAUAAAAACACAUGAGGAUCACCCAUGUAGAAGGACCAAAAG [salish99_ex2_r3_077] (puzzle: Exclusion 2)
- apparent KD of MS2 coat protein [2]: 80.4 nM
- apparent KD of MS2 coat protein [3]: 31.8 nM
- apparent KD of MS2 coat protein [4]: 28.9 nM

Sequence: GGUUGGCGAGGAUAUACAUGAGGAUCACCCAUGUGAGAGAAAGAAGUGAGGAAGAAAAGUAGAAGGCGUUGACG [salish99_ex3_r3_053] (puzzle: Exclusion 3)
- apparent KD of MS2 coat protein [2]: 50.6 nM
- apparent KD of MS2 coat protein [3]: 55.4 nM
- apparent KD of MS2 coat protein [4]: 71.7 nM

Sequence: UUUUUAUAUGAAGGAUAUACUUAACAUGAGGAUCACCCAUGUGGUGUUGUGAGUGAGUGAGUUUAGUAGAAGGUCAAGUAUUCU [JMF's solution 40] (Eterna round: R96, puzzle: Exclusion NG 2)
- apparent KD of MS2 coat protein (input ligand: FMN 200 uM): 575 nM
- apparent KD of MS2 coat protein [1]: 306 nM
- apparent KD of MS2 coat protein (input ligand: none): 496 nM

Sequence: AUUUUAAUAUAGGAUAUCGAAUUUAUUAAUUAUCGAGAAGGAUAAACAUGAGGAUCACCCAUGUGGUAUCAUGG [Mat - Exclusion 6 - JL Mod - D38] (puzzle: Exclusion 6)
- apparent KD of MS2 coat protein [3]: 226 nM

Sequence: AGUGACUUAGGAUAUUGGCAUGAAGACAUGAGGAUCACCCAUGUCCUCGUAGUCAUUCGCCGAGAAGGGAGAGAUU [Eternabot (L2) Solution 50] (Eterna round: R97, puzzle: Exclusion 5)
- apparent KD of MS2 coat protein (input ligand: FMN 200 uM): 126 nM
- apparent KD of MS2 coat protein (input ligand: none): 84.4 nM

Sequence: ACAUGUCAUCGAGGAUAUUGUACACAUGAGGAUCACCCAUGUACUCGGUUGCUCUAGCAUGAGUUCGAGAAGGCGAUGUACAUU [Ex NG2 #81] (Eterna round: R96, puzzle: Exclusion NG 2)
- apparent KD of MS2 coat protein (input ligand: FMN 200 uM): 178 nM
- apparent KD of MS2 coat protein [1]: 28.9 nM
- apparent KD of MS2 coat protein (input ligand: none): 38.4 nM

Sequence: AUUGAUGUUGAGGAUAUGCUUUUAUUUAUUCUUGCAGAAGGCGAUACAUGAGGAUCACCCAUGUUCAUGGAAGU [JR_E6_Sub091] (puzzle: Exclusion 6)
- apparent KD of MS2 coat protein [3]: 30.7 nM

Sequence: CUGGUCCGAGGAUAUAUUAUGUGAUACAUGAGGAUCACCCAUGUUAUAUGAUGGAUGUUAGUAGAAGGCGGACUAC [salish99_ex5_r3_001] (puzzle: Exclusion 5)
- apparent KD of MS2 coat protein [2]: 102 nM
- apparent KD of MS2 coat protein [3]: 69.9 nM
- apparent KD of MS2 coat protein [4]: 101 nM

Sequence: UGGUGGAAGCAGGAUAUGCUUGUUUUAUUGAUUGCAGAAGGGCUAACAUGAGGAUCACCCAUGUAAGAGGUGUU [JR_E6_Sub055] (puzzle: Exclusion 6)
- apparent KD of MS2 coat protein [3]: 303 nM
